Results: patent publication US6706266, “Oncostatin M antagonists” (SmithKline Beecham Corporation)
Where “and” joins values, the source holds several entries; their conditions need not be identical. Equal entries are not always repeated.

T1: gp130-Fc fusion protein (human, UniProt P40189 23-619)
T1 construct: extracellular domain; not shown: Fc fragment of human IgG1
T1 sequence (looked up): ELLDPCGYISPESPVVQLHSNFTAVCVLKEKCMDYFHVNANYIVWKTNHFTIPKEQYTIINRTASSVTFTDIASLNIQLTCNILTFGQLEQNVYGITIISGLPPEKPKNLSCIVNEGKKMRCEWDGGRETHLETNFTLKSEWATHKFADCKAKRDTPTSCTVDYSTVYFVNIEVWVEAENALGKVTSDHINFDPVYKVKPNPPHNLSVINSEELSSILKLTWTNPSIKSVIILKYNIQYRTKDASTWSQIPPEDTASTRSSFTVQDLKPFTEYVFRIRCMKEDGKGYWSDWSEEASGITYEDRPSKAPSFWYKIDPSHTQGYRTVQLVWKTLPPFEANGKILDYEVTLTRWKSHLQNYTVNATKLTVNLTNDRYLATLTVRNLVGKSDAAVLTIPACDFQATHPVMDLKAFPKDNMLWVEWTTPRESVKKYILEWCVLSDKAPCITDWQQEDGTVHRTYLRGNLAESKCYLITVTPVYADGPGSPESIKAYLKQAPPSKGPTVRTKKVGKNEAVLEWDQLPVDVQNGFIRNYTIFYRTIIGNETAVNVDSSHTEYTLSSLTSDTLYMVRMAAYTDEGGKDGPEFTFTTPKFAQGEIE

T2: gp130 on HepG2 B6 cells (UniProt P40189 23-918, limits assumed)
T2 sequence (looked up): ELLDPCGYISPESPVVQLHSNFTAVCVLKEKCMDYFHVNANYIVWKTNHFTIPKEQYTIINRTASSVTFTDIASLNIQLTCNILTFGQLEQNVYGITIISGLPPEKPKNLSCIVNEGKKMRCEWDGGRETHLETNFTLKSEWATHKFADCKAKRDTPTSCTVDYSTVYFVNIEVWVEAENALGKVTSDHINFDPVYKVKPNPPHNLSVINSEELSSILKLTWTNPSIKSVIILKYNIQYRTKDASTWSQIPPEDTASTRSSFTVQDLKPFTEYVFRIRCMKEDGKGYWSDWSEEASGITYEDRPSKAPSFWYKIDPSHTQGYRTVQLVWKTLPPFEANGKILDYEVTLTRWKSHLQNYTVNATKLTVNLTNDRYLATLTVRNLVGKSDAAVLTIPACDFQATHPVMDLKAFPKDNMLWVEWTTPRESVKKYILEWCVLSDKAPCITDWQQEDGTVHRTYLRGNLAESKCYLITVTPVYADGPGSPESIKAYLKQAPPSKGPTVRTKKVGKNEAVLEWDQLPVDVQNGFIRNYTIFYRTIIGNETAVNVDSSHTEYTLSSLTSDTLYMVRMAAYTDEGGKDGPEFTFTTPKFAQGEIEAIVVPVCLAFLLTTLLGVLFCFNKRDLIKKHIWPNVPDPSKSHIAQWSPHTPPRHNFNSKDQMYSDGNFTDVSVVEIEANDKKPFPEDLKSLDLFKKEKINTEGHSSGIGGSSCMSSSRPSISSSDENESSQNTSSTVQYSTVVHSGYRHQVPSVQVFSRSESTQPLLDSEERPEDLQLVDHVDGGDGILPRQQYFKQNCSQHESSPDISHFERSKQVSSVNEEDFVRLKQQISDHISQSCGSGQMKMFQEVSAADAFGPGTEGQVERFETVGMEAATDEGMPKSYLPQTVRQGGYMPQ


What was measured:
gp130-Fc fusion protein [1] = target: T1, gp130-Fc fusion protein; experiment: competition ELISA: OSM-GST titrated against plate-bound wt OSM for gp130-Fc; mean
Description: (§1) Plates were washed (×6 in PBS 0.05% tween 20, using Skatron Plate washer), tapped dry and blocked to reduce non-specific binding (200 µl/well, 1% BSA/PBS). Following 1 h incubation (room temperature on a shaking platform) the plates were tapped dry and wild type (wt) or mutant OSM-GST from Example 9b added (50 µl/well, 20–0.002 µg/ml, titrated in 1%BSA/PBS). As a positive control polyclonal anti-human OSM antibody (R&D Systems) was also tested (20–0.02 µg/ml). […] Following a 5 h incubation (room temperature on a shaking platform) the plates were washed (×6) and developed using ELISA Amplification System (Life Technologies) as manufacturer's instructions and the OD measured at 490 nm.

gp130 on HepG2 B6 cells = target: T2, gp130 on HepG2 B6 cells; experiment: cell-based or functional assay
gp130-Fc fusion protein [2] = target: T1, gp130-Fc fusion protein; experiment: competition ELISA: OSM-GST titrated against plate-bound wt OSM for gp130-Fc; single experiment
Description: as §1

Binder	IC50 (gp130-Fc fusion protein [1]) [µg/mL]	sPAP HepG2 B6 assay: Expt 1 % (EC50 as % of wild type EC50) (gp130 on HepG2 B6 cells) [%]	sPAP HepG2 B6 assay: Expt 1 EC50 (gp130 on HepG2 B6 cells) [µg/mL]	sPAP HepG2 B6 assay: Expt 2 % (EC50 as % of wild type EC50) (gp130 on HepG2 B6 cells) [%]	sPAP HepG2 B6 assay: Expt 2 EC50 (gp130 on HepG2 B6 cells) [µg/mL]	sPAP HepG2 B6 assay: Mean % of wild type EC50 (gp130 on HepG2 B6 cells) [%]	IC50 (gp130-Fc fusion protein [2])
wild type OSM-GST fusion (ligand, pGEX-derived fusion; also called wt OSM-GST; GST-hOSM; not shown: glutathione S-transferase (GST) encoded by modified pGEX-3X (Pharmacia), N-terminal, up to the Factor Xa site region sho) AAIGSCSKEYRVLLGQLQKQTDLMQDTSRLLDPYIRIQGLDVPKLREHCRERPGAFPSEETLRGLGRRGFLQTLNATLGCVLHRLADLEQRLPKAQDLERSGLNIEDLEKLQMARPNILGLRNNIYCMAQLLDNSDTAEPTKAGRGASQPPTPTPASDAFQRKLEGCRFLHGYHRFMHSVGRVFSKWGESPNRSRR	0.139	100	0.024	100	0.032	100	–
OSM-GST mutant E9A (ligand, not shown: a dimerising Fc or GST; large carriers; small tags and cut ends, Alanine mutant of m4; also called (3)E9A; 3 E9A) AAIGSCSKAYRVLLGQLQKQTDLMQDTSRLLDPYIRIQGLDVPKLREHCRERPGAFPSEETLRGLGRRGFLQTLNATLGCVLHRLADLEQRLPKAQDLERSGLNIEDLEKLQMARPNILGLRNNIYCMAQLLDNSDTAEPTKAGRGASQPPTPTPASDAFQRKLEGCRFLHGYHRFMHSVGRVFSKWGESPNRSRR	0.156	98	0.0236	27	0.0089	62.5	0.208 µg/mL and 0.163 µg/mL and 0.097 µg/mL
OSM-GST mutant D26A (ligand, not shown: a dimerising Fc or GST; large carriers; small tags and cut ends, Alanine mutant of m4; also called (27)D26A; 27 D26A) AAIGSCSKEYRVLLGQLQKQTDLMQATSRLLDPYIRIQGLDVPKLREHCRERPGAFPSEETLRGLGRRGFLQTLNATLGCVLHRLADLEQRLPKAQDLERSGLNIEDLEKLQMARPNILGLRNNIYCMAQLLDNSDTAEPTKAGRGASQPPTPTPASDAFQRKLEGCRFLHGYHRFMHSVGRVFSKWGESPNRSRR	0.31	81	0.0195	79	0.0255	80	0.17 µg/mL and 0.28 µg/mL and 0.481 µg/mL
OSM-GST mutant D22A (ligand, not shown: a dimerising Fc or GST; large carriers; small tags and cut ends, Alanine mutant of m4; also called (15)D22; 15 D22) AAIGSCSKEYRVLLGQLQKQTALMQDTSRLLDPYIRIQGLDVPKLREHCRERPGAFPSEETLRGLGRRGFLQTLNATLGCVLHRLADLEQRLPKAQDLERSGLNIEDLEKLQMARPNILGLRNNIYCMAQLLDNSDTAEPTKAGRGASQPPTPTPASDAFQRKLEGCRFLHGYHRFMHSVGRVFSKWGESPNRSRR	0.071	152	0.0367	50	0.016	101	0.04 µg/mL and 0.08 µg/mL and 0.092 µg/mL
OSM-GST mutant G15A (ligand, Alanine mutant of m4; also called (8)G15A; 8 G15A; not shown: Its linker is left out) AAIGSCSKEYRVLLAQLQKQTDLMQDTSRLLDPYIRIQGLDVPKLREHCRERPGAFPSEETLRGLGRRGFLQTLNATLGCVLHRLADLEQRLPKAQDLERSGLNIEDLEKLQMARPNILGLRNNIYCMAQLLDNSDTAEPTKAGRGASQPPTPTPASDAFQRKLEGCRFLHGYHRFMHSVGRVFSKWGESPNRSRR	0.155	87	0.021	55	0.0178	71	0.09 µg/mL and 0.203 µg/mL and 0.171 µg/mL

Second part, the binder after the results:

IC50 (gp130-Fc fusion protein [1]) [µg/mL]	sPAP HepG2 B6 assay: Expt 1 % (EC50 as % of wild type EC50) (gp130 on HepG2 B6 cells) [%]	sPAP HepG2 B6 assay: Expt 1 EC50 (gp130 on HepG2 B6 cells) [µg/mL]	sPAP HepG2 B6 assay: Expt 2 % (EC50 as % of wild type EC50) (gp130 on HepG2 B6 cells) [%]	sPAP HepG2 B6 assay: Expt 2 EC50 (gp130 on HepG2 B6 cells) [µg/mL]	sPAP HepG2 B6 assay: Mean % of wild type EC50 (gp130 on HepG2 B6 cells) [%]	IC50 (gp130-Fc fusion protein [2])	Binder
2.96	157	0.0379	154	0.0497	156	–	OSM-GST mutant N123A (ligand, not shown: a dimerising Fc or GST; large carriers; small tags and cut ends, Alanine mutant of m4; also called (22)N123A; 22 N123A) AAIGSCSKEYRVLLGQLQKQTDLMQDTSRLLDPYIRIQGLDVPKLREHCRERPGAFPSEETLRGLGRRGFLQTLNATLGCVLHRLADLEQRLPKAQDLERSGLNIEDLEKLQMARPNILGLRANIYCMAQLLDNSDTAEPTKAGRGASQPPTPTPASDAFQRKLEGCRFLHGYHRFMHSVGRVFSKWGESPNRSRR
0.138	66	0.016	38	0.0125	52	–	OSM-GST mutant K8A (ligand, not shown: a dimerising Fc or GST; large carriers; small tags and cut ends, Alanine mutant of m4; also called (2)K8A; 2 K8A) AAIGSCSAEYRVLLGQLQKQTDLMQDTSRLLDPYIRIQGLDVPKLREHCRERPGAFPSEETLRGLGRRGFLQTLNATLGCVLHRLADLEQRLPKAQDLERSGLNIEDLEKLQMARPNILGLRNNIYCMAQLLDNSDTAEPTKAGRGASQPPTPTPASDAFQRKLEGCRFLHGYHRFMHSVGRVFSKWGESPNRSRR
3.09	–	–	–	–	–	3.65 µg/mL and 2.68 µg/mL and 2.95 µg/mL	OSM-GST mutant G120A (ligand, not shown: a dimerising Fc or GST; large carriers; small tags and cut ends, Alanine mutant of m4; also called (20)G120; 20 G120A) AAIGSCSKEYRVLLGQLQKQTDLMQDTSRLLDPYIRIQGLDVPKLREHCRERPGAFPSEETLRGLGRRGFLQTLNATLGCVLHRLADLEQRLPKAQDLERSGLNIEDLEKLQMARPNILALRNNIYCMAQLLDNSDTAEPTKAGRGASQPPTPTPASDAFQRKLEGCRFLHGYHRFMHSVGRVFSKWGESPNRSRR
–	–	–	–	–	–	> 10 µg/mL	OSM-GST mutant Q16A (ligand, Alanine mutant of m4; also called (9)Q16A; 9 Q16A; not shown: Its linker is left out) AAIGSCSKEYRVLLGALQKQTDLMQDTSRLLDPYIRIQGLDVPKLREHCRERPGAFPSEETLRGLGRRGFLQTLNATLGCVLHRLADLEQRLPKAQDLERSGLNIEDLEKLQMARPNILGLRNNIYCMAQLLDNSDTAEPTKAGRGASQPPTPTPASDAFQRKLEGCRFLHGYHRFMHSVGRVFSKWGESPNRSRR
5	–	–	–	–	–	4.13 µg/mL and 5.57 µg/mL and 4.1 µg/mL and 6.2 µg/mL	OSM-GST mutant Q20A (ligand, Alanine mutant of m4; also called (13)Q20A; 13 Q20A; not shown: Its linker is left out) AAIGSCSKEYRVLLGQLQKATDLMQDTSRLLDPYIRIQGLDVPKLREHCRERPGAFPSEETLRGLGRRGFLQTLNATLGCVLHRLADLEQRLPKAQDLERSGLNIEDLEKLQMARPNILGLRNNIYCMAQLLDNSDTAEPTKAGRGASQPPTPTPASDAFQRKLEGCRFLHGYHRFMHSVGRVFSKWGESPNRSRR
0.116	98	0.0236	37	0.0119	67.5	–	OSM-GST mutant K19A (ligand, Alanine mutant of m4; also called (12)K19A; 12 K19A; not shown: Its linker is left out) AAIGSCSKEYRVLLGQLQAQTDLMQDTSRLLDPYIRIQGLDVPKLREHCRERPGAFPSEETLRGLGRRGFLQTLNATLGCVLHRLADLEQRLPKAQDLERSGLNIEDLEKLQMARPNILGLRNNIYCMAQLLDNSDTAEPTKAGRGASQPPTPTPASDAFQRKLEGCRFLHGYHRFMHSVGRVFSKWGESPNRSRR
2.53	269	0.0657	171	0.0549	220	2.96 µg/mL and 1.99 µg/mL and 2.64 µg/mL	OSM-GST mutant L13A (ligand, Alanine mutant of m4; also called (6)L13A; 6 L13A; not shown: Its linker is left out) AAIGSCSKEYRVALGQLQKQTDLMQDTSRLLDPYIRIQGLDVPKLREHCRERPGAFPSEETLRGLGRRGFLQTLNATLGCVLHRLADLEQRLPKAQDLERSGLNIEDLEKLQMARPNILGLRNNIYCMAQLLDNSDTAEPTKAGRGASQPPTPTPASDAFQRKLEGCRFLHGYHRFMHSVGRVFSKWGESPNRSRR
